Assay results from patent publication US20200040101A1.
“And” between values parts separate entries of the source, which are not always exact repeats. Identical values can stand only once. Values belong to the binder of their own block, whether it stands above or below them.

Tests used:
[1] = target: human Claudin 18.2 (CLDN18.2) expressed on cells (human) (UniProt P56856); assay: cell-based or functional assay
[2] = target: human Claudin 18.2 (CLDN18.2) expressed on cells (human) (UniProt P56856); assay: FACS, transfected HEK 293 cells, second 18.2 column
Claudin-22 = assay: FACS, transfected HEK 293 cells
Claudin-14 = assay: FACS, transfected HEK 293 cells
Claudin-34 = assay: FACS, transfected HEK 293 cells
Claudin-9 = assay: FACS, transfected HEK 293 cells
Claudin-8 = assay: FACS, transfected HEK 293 cells
Claudin-3 = assay: FACS, transfected HEK 293 cells
Claudin-5 = target: T1, Claudin-5; assay: FACS, transfected HEK 293 cells
T1 sequence (O00501 whole entry, species assumed, looked up): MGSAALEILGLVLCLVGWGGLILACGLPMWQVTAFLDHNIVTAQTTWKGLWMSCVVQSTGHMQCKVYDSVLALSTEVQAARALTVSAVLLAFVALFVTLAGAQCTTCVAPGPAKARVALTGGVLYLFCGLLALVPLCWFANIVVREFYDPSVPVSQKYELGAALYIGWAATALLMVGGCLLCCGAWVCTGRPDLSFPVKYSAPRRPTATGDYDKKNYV

Claudin-4 = assay: FACS, transfected HEK 293 cells
Claudin-16 = target: T2, Claudin-16; assay: FACS, transfected HEK 293 cells
T2 sequence (Q9Y5I7 1-235, species assumed, looked up): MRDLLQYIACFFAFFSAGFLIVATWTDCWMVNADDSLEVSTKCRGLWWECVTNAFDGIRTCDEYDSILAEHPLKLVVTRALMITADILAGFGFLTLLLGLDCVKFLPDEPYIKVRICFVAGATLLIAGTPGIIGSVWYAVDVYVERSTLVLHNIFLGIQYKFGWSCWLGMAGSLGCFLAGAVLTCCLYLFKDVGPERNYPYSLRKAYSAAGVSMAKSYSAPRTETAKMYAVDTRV

Claudin-23 = target: T3, Claudin-23; assay: FACS, transfected HEK 293 cells
T3 sequence (Q96B33 1-292, species assumed, looked up): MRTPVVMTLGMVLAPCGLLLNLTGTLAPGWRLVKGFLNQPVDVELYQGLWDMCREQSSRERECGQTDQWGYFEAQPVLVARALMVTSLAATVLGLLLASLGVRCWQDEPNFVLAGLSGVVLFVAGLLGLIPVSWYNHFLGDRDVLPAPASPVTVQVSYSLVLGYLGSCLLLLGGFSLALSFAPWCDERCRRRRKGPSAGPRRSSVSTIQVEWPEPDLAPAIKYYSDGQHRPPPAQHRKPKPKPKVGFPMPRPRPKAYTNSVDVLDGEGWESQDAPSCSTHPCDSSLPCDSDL

Claudin-10 = target: T4, Claudin-10; assay: FACS, transfected HEK 293 cells
T4 sequence (P78369 1-228, species assumed, looked up): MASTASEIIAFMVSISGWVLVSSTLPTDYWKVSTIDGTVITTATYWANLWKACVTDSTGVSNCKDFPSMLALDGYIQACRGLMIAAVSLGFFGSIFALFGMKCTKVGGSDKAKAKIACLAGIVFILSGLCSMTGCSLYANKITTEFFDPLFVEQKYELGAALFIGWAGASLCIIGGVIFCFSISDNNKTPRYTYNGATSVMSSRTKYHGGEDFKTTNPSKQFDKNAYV

Claudin-17 = target: T5, Claudin-17; assay: FACS, transfected HEK 293 cells
T5 sequence (P56750 whole entry, species assumed, looked up): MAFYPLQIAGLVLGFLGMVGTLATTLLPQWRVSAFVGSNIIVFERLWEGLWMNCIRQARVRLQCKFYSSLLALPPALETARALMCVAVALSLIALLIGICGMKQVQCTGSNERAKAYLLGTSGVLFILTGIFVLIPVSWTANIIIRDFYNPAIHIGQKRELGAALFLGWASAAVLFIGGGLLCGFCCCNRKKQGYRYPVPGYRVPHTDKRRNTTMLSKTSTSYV

Claudin-11 = target: T6, Claudin-11; assay: FACS, transfected HEK 293 cells
T6 sequence (O75508 whole entry, species assumed, looked up): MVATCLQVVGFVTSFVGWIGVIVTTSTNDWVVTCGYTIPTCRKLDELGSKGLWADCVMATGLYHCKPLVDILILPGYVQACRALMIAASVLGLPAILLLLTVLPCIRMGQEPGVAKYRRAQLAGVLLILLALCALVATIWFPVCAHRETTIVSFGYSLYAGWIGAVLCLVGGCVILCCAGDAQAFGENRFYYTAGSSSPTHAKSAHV

Claudin-19 = target: T7, Claudin-19; assay: FACS, transfected HEK 293 cells
T7 sequence (Q8N6F1 whole entry, species assumed, looked up): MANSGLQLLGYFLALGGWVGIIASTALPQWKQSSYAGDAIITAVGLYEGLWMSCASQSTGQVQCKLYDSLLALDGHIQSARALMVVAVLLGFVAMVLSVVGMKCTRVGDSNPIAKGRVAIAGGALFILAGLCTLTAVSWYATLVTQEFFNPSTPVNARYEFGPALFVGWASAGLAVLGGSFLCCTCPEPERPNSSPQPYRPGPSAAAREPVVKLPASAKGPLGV

[3] = target: T8, CLDN 7 expressed on HEK 293 cells (UniProt O95471); assay: FACS, transfected HEK 293 cells
T8 sequence (looked up): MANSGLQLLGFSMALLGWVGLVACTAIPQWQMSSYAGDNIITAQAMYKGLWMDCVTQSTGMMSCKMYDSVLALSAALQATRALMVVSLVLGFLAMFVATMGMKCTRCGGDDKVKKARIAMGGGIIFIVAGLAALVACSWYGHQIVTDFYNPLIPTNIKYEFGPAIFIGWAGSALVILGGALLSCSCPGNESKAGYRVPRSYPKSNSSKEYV

Claudin-12 = assay: FACS, transfected HEK 293 cells
Claudin-1 = assay: FACS, transfected HEK 293 cells
Claudin-2 = target: T9, Claudin-2; assay: FACS, transfected HEK 293 cells
T9 sequence (P57739 whole entry, species assumed, looked up): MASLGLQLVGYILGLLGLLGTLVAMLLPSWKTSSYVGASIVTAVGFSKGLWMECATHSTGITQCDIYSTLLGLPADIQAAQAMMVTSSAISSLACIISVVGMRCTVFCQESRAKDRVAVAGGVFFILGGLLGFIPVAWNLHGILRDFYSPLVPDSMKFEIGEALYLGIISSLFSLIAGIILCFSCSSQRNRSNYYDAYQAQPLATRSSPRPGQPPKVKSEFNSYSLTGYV

[4] = target: purified CLDN18.2 protein (CLDN18.2 ligand) (human) (UniProt P56856); assay: BLI (ForteBio Octet RED 96), antibody on anti-human IgG capture sensor, CLDN18.2 ligand in solution, 1:1 fit
[5] = target: human Claudin 18.2 (CLDN18.2) expressed on cells (human) (UniProt P56856); assay: FACS, purified antibody on HEK 293 cells expressing CLDN18.2
[6] = target: human Claudin 18.2 (CLDN18.2) expressed on cells (human) (UniProt P56856); assay: FACS, transfected HEK 293 cells, first 18.2 column
[7] = target: purified CLDN18.2 protein (CLDN18.2 ligand) (human) (UniProt P56856); assay: Octet (ForteBio), antibody on anti-human IgG capture sensor, CLDN18.2 ligand in solution, 1:1 fit
[8] = target: purified CLDN18.2 protein (CLDN18.2 ligand) (human) (UniProt P56856); assay: Octet (ForteBio), antibody on anti-human IgG capture sensor, CLDN18.2 ligand in solution, 1:1 fit; kdis(1/s)
[9] = target: CLDN18.1 expressed on HEK 293 cells (UniProt P56856); assay: FACS, transfected HEK293 cells, 10 ug/ml; HEK293 alone 14.2
[10] = target: human Claudin 18.2 (CLDN18.2) expressed on cells (human) (UniProt P56856); assay: as above
mouse-18.2 (mouse) = mouse-18.2 (mouse) (UniProt P56857); assay: as above
Sequence of mouse-18.2 (mouse) (P56857 other isoform, or with tags, fused parts or gaps): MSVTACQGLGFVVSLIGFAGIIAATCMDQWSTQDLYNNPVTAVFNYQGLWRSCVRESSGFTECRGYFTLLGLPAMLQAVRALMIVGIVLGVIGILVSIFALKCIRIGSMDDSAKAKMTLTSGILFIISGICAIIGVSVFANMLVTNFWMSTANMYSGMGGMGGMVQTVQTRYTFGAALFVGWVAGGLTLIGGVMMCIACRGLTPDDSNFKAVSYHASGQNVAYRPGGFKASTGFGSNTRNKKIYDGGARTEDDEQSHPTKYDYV

mouse-18.1 (mouse) = mouse-18.1 (mouse) (UniProt P56857); assay: as above
Sequence of mouse-18.1 (mouse) (P56857 whole entry): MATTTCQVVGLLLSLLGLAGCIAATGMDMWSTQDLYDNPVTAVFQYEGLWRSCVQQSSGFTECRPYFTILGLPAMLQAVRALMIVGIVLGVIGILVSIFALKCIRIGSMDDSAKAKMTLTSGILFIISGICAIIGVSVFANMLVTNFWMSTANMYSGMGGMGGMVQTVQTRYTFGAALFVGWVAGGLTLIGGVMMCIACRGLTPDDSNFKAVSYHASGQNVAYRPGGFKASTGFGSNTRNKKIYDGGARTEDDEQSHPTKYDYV

[11] = target: human Claudin 18.2 (CLDN18.2) expressed on cells (human) (UniProt P56856); assay: FACS, purified chimeric antibody on HEK 293 cells expressing CLDN18.2
[12] = target: CLDN18.1 expressed on HEK 293 cells (UniProt P56856); assay: FACS, hybridoma supernatant on HEK 293 cells expressing CLDN 18.1

ADCC NUGC4 Cells [1]: 610 ng/mL
ADCC with 293 cells expressing Claudin 18.2 [1]: 0.014 nM and 0.006 nM
MFI [2]: 3880
MFI (Claudin-22): 19.9
MFI (Claudin-14): 21.2
MFI (Claudin-34): 21.1
MFI (Claudin-9): 20.4
MFI (Claudin-8): 20.4
MFI (Claudin-3): 20.8
MFI (Claudin-5): 18.4
MFI (Claudin-4): 18.7
MFI (Claudin-16): 19.5
MFI (Claudin-23): 19.8
MFI (Claudin-10): 20.8
MFI (Claudin-17): 19.6
MFI (Claudin-11): 19.3
MFI (Claudin-19): 18.1
MFI [3]: 21.4
MFI (Claudin-12): 21.4
MFI (Claudin-1): 20.9
MFI (Claudin-2): 19.7
Kd [4]: 89 nM and 71 nM
EC50 [5]: 1.17 nM
FACS Signal MFI (×1000) [5]: 25000 MFI
MFI [6]: 4040
Kd [7]: 86.9 nM
kon [7]: 1600 M⁻¹ s⁻¹
koff [8]: 0.000139 s⁻¹
B1: Internal Reference (reference antibody with the heavy and light chain sequences of Zolbetuximab) (antibody, INN chains, looked up, V domains shown)
VH: QVQLQQPGAELVRPGASVKLSCKASGYTFTSYWINWVKQRPGQGLEWIGNIYPSDSYTNYNQKFKDKATLTVDKSSSTAYMQLSSPTSEDSAVYYCTRSWRGNSFDYWGQGTTLTVSS
VL: DIVMTQSPSSLTVTAGEKVTMSCKSSQSLLNSGNQKNYLTWYQQKPGQPPKLLIYWASTRESGVPDRFTGSGSGTDFTLTISSVQAEDLAVYYCQNDYSYPFTFGSGTKLEIKR

ADCC NUGC4 Cells [1]: 70 ng/mL
ADCC with 293 cells expressing Claudin 18.2 [1]: 0.015 nM
MFI [9]: 19.4
MFI [10]: 553
MFI (mouse-18.2 (mouse)): 3490
MFI (mouse-18.1 (mouse)): 18.9
Kd [4]: 12 nM
EC50 [11]: 0.619 nM
FACS Signal MFI (×1000) [11]: 55000 MFI
Kd [7]: 12.5 nM
kon [7]: 2320 M⁻¹ s⁻¹
koff [8]: 2.9e-05 s⁻¹
B2: Clone # 46 (purified chimeric rabbit/human antibody) (antibody, V domains shown)
VH: QQQLVESGGGLVKPGGTLTLTCTVSGFYFNRGYWICWVRQAPGKGLEWIGCIDTGSGVPYYANWAKGRFTISKTSSTAVTLQMTSLTAADTATYFCARNSDSIYFNLWGPGTLVTVSS
VL: DIVMTQTPASVSEPVGGTVTIKCQASQSIGGYLSWYQQKPGQPPKLLIYKASTLASGVPSRFKGSGSGTDFTLTISDLECADAATYYCQNYAGVSIYGAVFGGGTKVVVVR

MFI [12]: 30
B3: 11E12 (mouse hybridoma subclone antibody) (antibody, V domains shown)
VH: QVQLQQSGAELARPGASVKLSCKASGYTFTSYVINWVKQKTGQGLEWIGEIHPRGGNTYYSEKFRGRATLTADKSSSTAYMEFRSLTSEDSAVYFCAILRRGNAMDYWDQGTAVTVSS
VL: DIVMTQSPSSLPVTAGEMVTMSCKSSQSLLNSGNQRNYLTWYQQKPGQPPKLLIYWASTRESGVPDRFTGSGSGTDFTLTISSVQAEDLAVYYCQNSYNYPYTFGGGTKLERK
